Patent publication US20260265396A1
Where a chain is given by its changes, count along the chain named.

Tests used:
[1] = molecular target: truncated hTfR1 of SEQ ID NO:89 (human) (UniProt P02786); assay: SPR, hTfR1 on CM5, bispecific molecule with scFv module injected
[2] = molecular target: His10-mTfR1 (SEQ ID NO:53) (mouse) (UniProt Q62351); assay: indirect ELISA, His10-mTfR1 captured on Ni-coated plate, hybridoma supernatant
Sequence of His10-mTfR1 (SEQ ID NO:53) (mouse) (Q62351 other isoform, or with tags, fused parts or gaps limits assumed): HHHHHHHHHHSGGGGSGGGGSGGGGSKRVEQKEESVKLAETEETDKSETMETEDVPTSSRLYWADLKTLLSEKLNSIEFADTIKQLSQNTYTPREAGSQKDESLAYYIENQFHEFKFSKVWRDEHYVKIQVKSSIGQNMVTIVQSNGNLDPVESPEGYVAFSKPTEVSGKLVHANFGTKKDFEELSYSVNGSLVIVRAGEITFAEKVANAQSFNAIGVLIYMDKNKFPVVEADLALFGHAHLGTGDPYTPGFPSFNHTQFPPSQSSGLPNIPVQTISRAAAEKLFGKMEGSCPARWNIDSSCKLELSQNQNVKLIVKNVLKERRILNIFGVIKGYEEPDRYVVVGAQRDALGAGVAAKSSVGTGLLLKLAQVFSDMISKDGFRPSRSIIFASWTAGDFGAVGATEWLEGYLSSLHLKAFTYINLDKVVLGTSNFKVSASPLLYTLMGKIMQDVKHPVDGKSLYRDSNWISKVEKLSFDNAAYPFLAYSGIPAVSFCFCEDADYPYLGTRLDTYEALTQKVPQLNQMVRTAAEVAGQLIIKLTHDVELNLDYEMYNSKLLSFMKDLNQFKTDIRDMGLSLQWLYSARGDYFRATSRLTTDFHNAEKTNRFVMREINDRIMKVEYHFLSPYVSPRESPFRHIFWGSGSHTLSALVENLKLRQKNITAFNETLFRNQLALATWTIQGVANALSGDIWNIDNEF

Sequence of truncated hTfR1 of SEQ ID NO:89 (human) (P02786 other isoform, or with tags, fused parts or gaps limits assumed): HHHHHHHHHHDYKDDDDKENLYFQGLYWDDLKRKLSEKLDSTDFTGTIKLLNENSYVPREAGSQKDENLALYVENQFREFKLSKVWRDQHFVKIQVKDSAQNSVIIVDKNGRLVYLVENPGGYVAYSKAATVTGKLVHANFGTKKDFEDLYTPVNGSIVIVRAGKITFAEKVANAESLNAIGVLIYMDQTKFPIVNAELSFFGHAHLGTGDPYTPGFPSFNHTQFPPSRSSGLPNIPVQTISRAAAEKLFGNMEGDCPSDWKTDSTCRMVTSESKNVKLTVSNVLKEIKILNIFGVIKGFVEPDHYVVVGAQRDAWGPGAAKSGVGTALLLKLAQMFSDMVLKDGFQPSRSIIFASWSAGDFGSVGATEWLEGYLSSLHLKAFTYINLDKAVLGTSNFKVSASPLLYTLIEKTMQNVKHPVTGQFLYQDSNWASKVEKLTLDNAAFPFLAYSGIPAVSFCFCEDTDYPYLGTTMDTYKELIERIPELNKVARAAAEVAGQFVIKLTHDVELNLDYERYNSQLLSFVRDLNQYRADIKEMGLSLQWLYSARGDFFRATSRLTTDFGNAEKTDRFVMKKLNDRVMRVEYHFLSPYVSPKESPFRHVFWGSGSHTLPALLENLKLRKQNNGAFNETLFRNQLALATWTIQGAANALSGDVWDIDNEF

B1: bispecific binding molecule (format of WO2022/258841) with h26D3 scFv module (bispecific antibody, part only; not given: Cargo antibody chains, linkers, domain order, V domains shown, not shown: another chain or arm of the molecule; large carriers; small tags and cut ends)
VH: EVQLVQSGAEVKKPGSSVKVSCKASGYIFTDYNMDWVRQAPGQGLEWIGDINPDYDTTSYNEKFKGRATLTVDKSTSTAYMELSSLRSEDTAVYYCARGGYSGSSYYHPMDYWGQGTLVTVSS
VL: DIQMTQSPSSVSASVGDRVTITCKSSQSLLYSTNQKNYLAWYQQKPGKAPKLLIYWASTRESGVPSRFSGSGSGTDFTLTISSLQPEDFATYYCQQYFIYPRTFGQGTKVEIK
**Q.** Which Kd [1] does the source give for B1 here?
**A.** 10 nM

B2: bispecific binding molecule (format of WO2022/258841) with h26D3 LC1 scFv module (bispecific antibody, part only; not given: Cargo antibody chains, linkers, domain order, V domains shown, not shown: another chain or arm of the molecule; large carriers; small tags and cut ends)
VH: B1 VH
VL: B1 VL with Y31A
**Q.** How did the Kd [1] turn out when B2 was run?
**A.** 40 nM

B3: bispecific binding molecule (format of WO2022/258841) with h26D3 HC6 scFv module (bispecific antibody, part only; not given: Cargo antibody chains, linkers, domain order, V domains shown, not shown: another chain or arm of the molecule; large carriers; small tags and cut ends)
VH: B1 VH with Y55A
VL: B1 VL
**Q.** How did the Kd [1] turn out when B3 was run?
**A.** 100 to 200 nM

B4: bispecific binding molecule (format of WO2022/258841) with h26D3 LC5 scFv module (bispecific antibody, part only; not given: cargo antibody chains, linkers, format, V domains shown, not shown: another chain or arm of the molecule; large carriers; small tags and cut ends)
VH: B1 VH
VL: B1 VL with Y97A
**Q.** How did the Kd [1] turn out when B4 was run?
**A.** 400 to 500 nM

B5: mouse monoclonal antibody 26D3 (antibody, mouse IgG2a, V domains shown)
VH: EVQLQQFGVELVKPGASVKISCKASGYIFTDYNMDWVKQSHGKSLEWIGDINPDYDTTSYNEKFKGKATLTVDKSSSTAYMELRSLTSEDTAVYYCARGGYSGSSYYHPMDYWGQGTSVTVSS
VL: DIVMSQSPSSLAVSVGEKITMSCKSSQSLLYSTNQKNYLAWYQQKPGQSPELLIYWASTRESGVPDRFTGSGSGTDFTLTISNVRAEDLAVYYCQQYFIYPRTFGGGTKLEIK
**Q.** Which OD450 (indirect ELISA) [2] does the source give for B5 here?
**A.** > 0.2 OD
